Results reported in the supplement of paper PMC11811203.

B1: THAP1; numbered along this chain (parent)
chain: MVQSCSAYGCKNRYDKDKPVSFHKFPLTRPSLCKEWEAAVRRKNFKPTKYSSICSEHFTPDCFKRECNNKLLKENAVPTIFLCTEPHDKKEDLLEPQEQLPPPPLPPPVSQVDAAIGLLMPPLQTPVNLSVFCDHNYTVEDTMHQRKRIHQLEQQVEKLRKKLKTAQQRCRRQERQLEKLKEVVHFQKEKDDVSERGYVILPNDYFEIVEVPA

Variants of: B1
Assay: THAP1 transcriptional activity (GFP+/GFP- enrichment relative to wild-type constructs) (ratio to WT); higher = more THAP1 activity (PSMB5 reporter activation)
Conditions: with PSMB5 promoter-GFP reporter
How it was run: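 In duplicate, a lentivirus-delivered library with every residue from 2–213 of human THAP1 changed to all 20 amino acids was introduced at MOI ~0.3 into THAP1-knockout HEK-293T cells carrying endogenous PSMB5 tagged by mClover3 knock-in. Five days on, BFP+ cells were binned as GFP-dim or GFP-bright, and Illumina sequencing of genomic DNA amplicons counted each variant. Activity is the bright/dim read fold change, averaged over replicates and scaled to the mean of wild-type synonymous constructs.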
For T79I, the THAP1 transcriptional activity was 0.861. D61R gave a THAP1 transcriptional activity of 0.22. Work on Q168R yielded a THAP1 transcriptional activity of 0.446. For Q168D, the THAP1 transcriptional activity was 0.417. L123R showed a THAP1 transcriptional activity of 1.45. L177K showed a THAP1 transcriptional activity of 0.328. F25D gave a THAP1 transcriptional activity of 0.123. P86W was tested, and the THAP1 transcriptional activity was 0.533. L152E was tested, and the THAP1 transcriptional activity was 0.227. Variant L152M has a THAP1 transcriptional activity of 0.249. S51Q gave a THAP1 transcriptional activity of 0.0846. With K90W the THAP1 transcriptional activity was 0.775. Work on K90I yielded a THAP1 transcriptional activity of 1.52. In the case of L118V, the THAP1 transcriptional activity is reported as 0.976. L118C gave a THAP1 transcriptional activity of 0.498. Work on D88A yielded a THAP1 transcriptional activity of 0.554. In the case of V20D, the THAP1 transcriptional activity is reported as 0.128. V20T showed a THAP1 transcriptional activity of 0.58. H144W was tested, and the THAP1 transcriptional activity was 0.56. C54N showed a THAP1 transcriptional activity of 0.106. For T138H, the THAP1 transcriptional activity was 0.837. Q173G gave a THAP1 transcriptional activity of 0.386. Variant D17H has a THAP1 transcriptional activity of 1.05. Work on V209W yielded a THAP1 transcriptional activity of 0.757. Variant E35A has a THAP1 transcriptional activity of 0.556. Y205Q was tested, and the THAP1 transcriptional activity was 1.51. With A7L the THAP1 transcriptional activity was 0.156. Q111T showed a THAP1 transcriptional activity of 1.13. Q111V showed a THAP1 transcriptional activity of 0.457. Q111H showed a THAP1 transcriptional activity of 0.97. Q111W showed a THAP1 transcriptional activity of 0.132. Q111I showed a THAP1 transcriptional activity of 0.508. With E140V the THAP1 transcriptional activity was 1.01. In the case of E140M, the THAP1 transcriptional activity is reported as 1.04. D15Q was tested, and the THAP1 transcriptional activity was 1.05. For R175T, the THAP1 transcriptional activity was 0.382. In the case of F63P, the THAP1 transcriptional activity is reported as 0.103. Work on E37N yielded a THAP1 transcriptional activity of 0.451. L71S gave a THAP1 transcriptional activity of 0.483. Variant C10Q has a THAP1 transcriptional activity of 0.125. Variant C10S has a THAP1 transcriptional activity of 0.308. L163N showed a THAP1 transcriptional activity of 0.134. P60T showed a THAP1 transcriptional activity of 0.758. V211F showed a THAP1 transcriptional activity of 1.01. V211C gave a THAP1 transcriptional activity of 0.988. Variant V40Q has a THAP1 transcriptional activity of 0.142. For C33M, the THAP1 transcriptional activity was 0.188. Q97G was tested, and the THAP1 transcriptional activity was 0.874. Work on D192G yielded a THAP1 transcriptional activity of 1.19. For D192Q, the THAP1 transcriptional activity was 1.23. Work on E195D yielded a THAP1 transcriptional activity of 1.15. For E66M, the THAP1 transcriptional activity was 0.558. N44F was tested, and the THAP1 transcriptional activity was 0.301. Variant T28N has a THAP1 transcriptional activity of 0.889. K16F was tested, and the THAP1 transcriptional activity was 0.117. For P121L, the THAP1 transcriptional activity was 0.104. Work on Q167N yielded a THAP1 transcriptional activity of 0.559. Q167E gave a THAP1 transcriptional activity of 0.37. For E56T, the THAP1 transcriptional activity was 0.336. Work on E56P yielded a THAP1 transcriptional activity of 0.0876. E56H gave a THAP1 transcriptional activity of 0.253. Work on T125W yielded a THAP1 transcriptional activity of 0.351. Variant T125D has a THAP1 transcriptional activity of 0.713. For T125V, the THAP1 transcriptional activity was 0.325. With E189D the THAP1 transcriptional activity was 1.2. E189M showed a THAP1 transcriptional activity of 1.09. With P126S the THAP1 transcriptional activity was 1.11. Variant P212F has a THAP1 transcriptional activity of 0.548. K70W was tested, and the THAP1 transcriptional activity was 0.129. In the case of L201P, the THAP1 transcriptional activity is reported as 0.855. Q176D gave a THAP1 transcriptional activity of 0.41. For K64A, the THAP1 transcriptional activity was 0.0797. In the case of K64E, the THAP1 transcriptional activity is reported as 0.188. K64N showed a THAP1 transcriptional activity of 0.237. I200Y was tested, and the THAP1 transcriptional activity was 0.548. V156G was tested, and the THAP1 transcriptional activity was 0.25. Variant N12T has a THAP1 transcriptional activity of 0.097. Work on K179C yielded a THAP1 transcriptional activity of 0.34. D113E was tested, and the THAP1 transcriptional activity was 0.669. D113P was tested, and the THAP1 transcriptional activity was 0.638. S194P was tested, and the THAP1 transcriptional activity was 1.22. With S194W the THAP1 transcriptional activity was 1.09. With S194T the THAP1 transcriptional activity was 0.865. In the case of R146W, the THAP1 transcriptional activity is reported as 0.39. R146P gave a THAP1 transcriptional activity of 0.535. With P26A the THAP1 transcriptional activity was 0.13. With P26E the THAP1 transcriptional activity was 0.157. In the case of V77Q, the THAP1 transcriptional activity is reported as 0.318. With N203W the THAP1 transcriptional activity was 0.535. In the case of H87A, the THAP1 transcriptional activity is reported as 1.39. Work on C67Y yielded a THAP1 transcriptional activity of 0.2. K190G showed a THAP1 transcriptional activity of 0.878. Variant K190D has a THAP1 transcriptional activity of 0.645. With F45P the THAP1 transcriptional activity was 0.114. F45V gave a THAP1 transcriptional activity of 0.0786. S130D showed a THAP1 transcriptional activity of 0.555. Variant S130P has a THAP1 transcriptional activity of 0.611. For S130T, the THAP1 transcriptional activity was 0.436. A115P gave a THAP1 transcriptional activity of 0.658. A115G gave a THAP1 transcriptional activity of 0.474. M143Y gave a THAP1 transcriptional activity of 0.547. V109T gave a THAP1 transcriptional activity of 1.18. Work on T142P yielded a THAP1 transcriptional activity of 0.997. In the case of N75F, the THAP1 transcriptional activity is reported as 0.875. For N75M, the THAP1 transcriptional activity was 0.658. In the case of N75Y, the THAP1 transcriptional activity is reported as 0.177. For N75A, the THAP1 transcriptional activity was 0.373. P122F showed a THAP1 transcriptional activity of 0.156. For G9I, the THAP1 transcriptional activity was 0.144. Work on A114K yielded a THAP1 transcriptional activity of 0.546. L94E was tested, and the THAP1 transcriptional activity was 1.42. For S21V, the THAP1 transcriptional activity was 0.0819. With K46D the THAP1 transcriptional activity was 0.0595. With K46P the THAP1 transcriptional activity was 0.126. K46S showed a THAP1 transcriptional activity of 0.379. T59V was tested, and the THAP1 transcriptional activity was 0.269. In the case of V131P, the THAP1 transcriptional activity is reported as 0.75. V131Y was tested, and the THAP1 transcriptional activity was 0.27. For V131A, the THAP1 transcriptional activity was 0.451. V131L was tested, and the THAP1 transcriptional activity was 0.533. E157R gave a THAP1 transcriptional activity of 0.765. In the case of I149K, the THAP1 transcriptional activity is reported as 0.403. Variant I149C has a THAP1 transcriptional activity of 0.454. For D134C, the THAP1 transcriptional activity was 0.156. C5E was tested, and the THAP1 transcriptional activity was 0.115. With K188A the THAP1 transcriptional activity was 1.14. K188C gave a THAP1 transcriptional activity of 0.792. Variant Y50K has a THAP1 transcriptional activity of 0.0751. P19K showed a THAP1 transcriptional activity of 0.674. With H150A the THAP1 transcriptional activity was 1. H150D gave a THAP1 transcriptional activity of 0.609. Work on K162E yielded a THAP1 transcriptional activity of 0.269. Work on K162N yielded a THAP1 transcriptional activity of 0.185. For I80H, the THAP1 transcriptional activity was 0.323. Variant L32Q has a THAP1 transcriptional activity of 0.378. With E178Y the THAP1 transcriptional activity was 0.632. E74A showed a THAP1 transcriptional activity of 0.445. With Y198Q the THAP1 transcriptional activity was 1.51. With L129M the THAP1 transcriptional activity was 0.714. For E174G, the THAP1 transcriptional activity was 0.535. Work on C170L yielded a THAP1 transcriptional activity of 0.894. Work on H135D yielded a THAP1 transcriptional activity of 0.195. With H135F the THAP1 transcriptional activity was 0.196. In the case of H135L, the THAP1 transcriptional activity is reported as 0.0852. Work on N128L yielded a THAP1 transcriptional activity of 0.284. Variant K147D has a THAP1 transcriptional activity of 0.605. Work on E207T yielded a THAP1 transcriptional activity of 0.557. With E207M the THAP1 transcriptional activity was 0.796. L105I was tested, and the THAP1 transcriptional activity was 2.11. P78E showed a THAP1 transcriptional activity of 0.463. F81I was tested, and the THAP1 transcriptional activity was 0.536. F81S was tested, and the THAP1 transcriptional activity was 0.443. F206Q gave a THAP1 transcriptional activity of 0.86. P47V was tested, and the THAP1 transcriptional activity was 0.712. In the case of E98P, the THAP1 transcriptional activity is reported as 0.816. For W36N, the THAP1 transcriptional activity was 0.101. With W36G the THAP1 transcriptional activity was 0.0718. Variant W36S has a THAP1 transcriptional activity of 0.197. With S55Q the THAP1 transcriptional activity was 0.168. S4W was tested, and the THAP1 transcriptional activity was 0.171. S4E gave a THAP1 transcriptional activity of 0.103. Variant E85H has a THAP1 transcriptional activity of 0.704. In the case of I116H, the THAP1 transcriptional activity is reported as 0.735. With I116F the THAP1 transcriptional activity was 0.452. I116K showed a THAP1 transcriptional activity of 0.886. Work on L93T yielded a THAP1 transcriptional activity of 1.14. Variant C62G has a THAP1 transcriptional activity of 0.113.
